Assay results: publication PMC5342242, “Altering the N-terminal arms of the polymerase manager protein UmuD modulates protein interactions” (PLoS ONE, 2017)

Key:
[1] = biological target: T1, DNA polymerase III α subunit truncation α917–1160 (E. coli, UniProt P10443 917-1160); experiment: other fluorescence titration; intrinsic tryptophan fluorescence of α; UmuD titrated into a solution of α; equilibrium Kd; settings: both partners purified
T1 construct: α polymerase subunit of DNA polymerase III, E. coli, residues 917–1160; also called C-terminal fragment of α; source: described previously [21]
T1 sequence (P10443 917-1160): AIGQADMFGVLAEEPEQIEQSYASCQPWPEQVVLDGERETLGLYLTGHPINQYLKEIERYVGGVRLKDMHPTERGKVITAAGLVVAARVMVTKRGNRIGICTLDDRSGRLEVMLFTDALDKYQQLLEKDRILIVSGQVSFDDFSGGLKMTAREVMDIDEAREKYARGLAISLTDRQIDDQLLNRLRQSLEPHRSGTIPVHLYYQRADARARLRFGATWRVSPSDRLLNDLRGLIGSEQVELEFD

[2] = biological target: T2, DNA polymerase III α subunit truncation α1–280 (E. coli, UniProt P10443 1-280); experiment: as above; settings: both partners purified
T2 construct: α polymerase subunit of DNA polymerase III, E. coli, residues 1–280; also called N-terminal domain of α; PHP domain; source: described previously [21]
T2 sequence (P10443 1-280): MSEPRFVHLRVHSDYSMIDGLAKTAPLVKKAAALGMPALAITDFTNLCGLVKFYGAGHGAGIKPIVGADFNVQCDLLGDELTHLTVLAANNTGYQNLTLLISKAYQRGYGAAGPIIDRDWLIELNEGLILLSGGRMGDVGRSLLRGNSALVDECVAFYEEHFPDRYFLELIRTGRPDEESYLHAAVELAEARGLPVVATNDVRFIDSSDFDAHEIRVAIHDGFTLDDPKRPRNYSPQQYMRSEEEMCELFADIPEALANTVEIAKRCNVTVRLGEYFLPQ

[3] = biological target: T3, DNA polymerase III α subunit, full-length (E. coli, UniProt P10443 1-1160, in the FRET assay only: labeled with Alexa Fluor 647 C2-maleimide); experiment: as above; settings: both partners purified
T3 construct: α polymerase subunit of DNA polymerase III, E. coli, full-length; Unlabelled in the tryptophan fluorescence titration; also called pol III α; full-length α; source: purified; as previously described [21]
T3 sequence (P10443 whole entry): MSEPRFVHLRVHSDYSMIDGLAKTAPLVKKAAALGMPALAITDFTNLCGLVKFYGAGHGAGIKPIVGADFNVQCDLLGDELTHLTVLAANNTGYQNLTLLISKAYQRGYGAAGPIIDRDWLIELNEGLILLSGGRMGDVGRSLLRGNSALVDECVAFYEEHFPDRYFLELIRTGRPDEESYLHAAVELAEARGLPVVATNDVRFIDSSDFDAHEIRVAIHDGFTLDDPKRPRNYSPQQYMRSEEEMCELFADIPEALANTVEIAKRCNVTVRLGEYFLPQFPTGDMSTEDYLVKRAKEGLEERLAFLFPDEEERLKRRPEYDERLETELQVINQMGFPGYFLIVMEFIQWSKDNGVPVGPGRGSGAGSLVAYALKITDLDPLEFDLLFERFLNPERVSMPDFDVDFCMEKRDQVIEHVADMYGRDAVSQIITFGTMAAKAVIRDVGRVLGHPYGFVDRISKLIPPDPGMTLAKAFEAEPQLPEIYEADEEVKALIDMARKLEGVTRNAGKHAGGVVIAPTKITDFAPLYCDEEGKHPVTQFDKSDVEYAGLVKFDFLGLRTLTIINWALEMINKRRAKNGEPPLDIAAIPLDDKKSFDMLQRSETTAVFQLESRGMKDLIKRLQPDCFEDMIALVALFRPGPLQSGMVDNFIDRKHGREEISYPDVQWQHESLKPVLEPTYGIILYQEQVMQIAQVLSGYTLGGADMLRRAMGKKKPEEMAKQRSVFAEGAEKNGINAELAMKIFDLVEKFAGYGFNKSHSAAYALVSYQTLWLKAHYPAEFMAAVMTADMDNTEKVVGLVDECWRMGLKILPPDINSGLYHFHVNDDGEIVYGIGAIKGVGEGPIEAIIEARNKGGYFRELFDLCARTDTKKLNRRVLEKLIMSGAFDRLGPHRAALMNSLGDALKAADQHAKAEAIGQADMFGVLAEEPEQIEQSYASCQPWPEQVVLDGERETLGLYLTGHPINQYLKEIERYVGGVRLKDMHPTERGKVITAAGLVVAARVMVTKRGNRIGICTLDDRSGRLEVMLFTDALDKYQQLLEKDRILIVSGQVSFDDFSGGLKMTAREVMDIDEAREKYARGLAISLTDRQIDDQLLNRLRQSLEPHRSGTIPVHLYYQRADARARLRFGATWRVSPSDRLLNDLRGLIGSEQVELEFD

[4] = biological target: the molecule itself; experiment: cross-linking; 10 mM bis(maleimido)hexane (BMH), 40 μM protein, 10 min at room temperature; cross-linked dimers seen by Coomassie-stained SDS-PAGE

| Binder | Kd [1] | Kd [2] | Kd [3] | percent cross-linked dimers [4] |
| --- | --- | --- | --- | --- |
| UmuD 8 S60A (domain or fragment, E. coli, UniProt P0AG11 8-139, looked up, UmuD, E. coli, lacking the N-terminal 7 residues (Δ1–7) of the 139-residue full-length protein; non-cleavable active-site variant S60A; Plasmid pSG5 derivative; also called UmuD Δ1–7 S60A; source: constructed in pSG5, expressed and purified as previously described [33, 34]) DLREIVTFPLFSDLVQCGFPSPAADYVEQRIDLNQLLIQHPSATYFVKASGDAMIDGGISDGDLLIVDSAITASHGDIVIAAVDGEFTVKKLQLRPTVQLIPMNSAYSPITISSEDTLDVFGVVIHVVKAMR | 0.2 ± 0.4 µM | 3.5 ± 0.8 µM | 8.1 ± 0.9 µM | 32% |
| UmuD 3A (natural protein, E. coli, UniProt P0AG11 1-139, looked up, UmuD, E. coli, full-length arms, three alanine mutations T14A L17A F18A; also called UmuD T14A L17A F18A; source: purified; not further stated) MLFIKPADLREIVAFPAASDLVQCGFPSPAADYVEQRIDLNQLLIQHPSATYFVKASGDSMIDGGISDGDLLIVDSAITASHGDIVIAAVDGEFTVKKLQLRPTVQLIPMNSAYSPITISSEDTLDVFGVVIHVVKAMR |  |  |  | 41% |
| UmuD S60A (natural protein, E. coli, UniProt P0AG11 1-139, looked up, UmuD, E. coli, full-length 139 residues, non-cleavable active-site variant S60A; also called full-length UmuD-S60A; active site variant UmuD S60A; source: purified; expression from pSG5 as previously described [33, 34]) MLFIKPADLREIVTFPLFSDLVQCGFPSPAADYVEQRIDLNQLLIQHPSATYFVKASGDAMIDGGISDGDLLIVDSAITASHGDIVIAAVDGEFTVKKLQLRPTVQLIPMNSAYSPITISSEDTLDVFGVVIHVVKAMR |  |  |  | 31% |
| UmuD S60A C24A A7C (natural protein, E. coli, UniProt P0AG11 1-139, looked up, UmuD, E. coli, with the full-length arm; single cysteine moved from position 24 to position 7; S60A; also called UmuD A7C C24A S60A; source: purified; not further stated) MLFIKPCDLREIVTFPLFSDLVQAGFPSPAADYVEQRIDLNQLLIQHPSATYFVKASGDAMIDGGISDGDLLIVDSAITASHGDIVIAAVDGEFTVKKLQLRPTVQLIPMNSAYSPITISSEDTLDVFGVVIHVVKAMR |  |  |  | 71% |
| wild-type UmuD (natural protein, E. coli, UniProt P0AG11 1-139, looked up, UmuD, E. coli, full-length, 139 residues; also called WT UmuD; full-length UmuD; source: purified; expression from pSG5 as previously described [33, 34]) MLFIKPADLREIVTFPLFSDLVQCGFPSPAADYVEQRIDLNQLLIQHPSATYFVKASGDSMIDGGISDGDLLIVDSAITASHGDIVIAAVDGEFTVKKLQLRPTVQLIPMNSAYSPITISSEDTLDVFGVVIHVVKAMR |  |  |  | 25% |
| UmuD 18 S60A (domain or fragment, E. coli, UniProt P0AG11 18-139, looked up, UmuD, E. coli, lacking the N-terminal 17 residues (Δ1–17) of the 139-residue full-length protein; non-cleavable active-site variant S60A; Plasmid pSG5 derivative; also called UmuD Δ1–17 S60A; source: constructed in pSG5, expressed and purified as previously described [33, 34]) FSDLVQCGFPSPAADYVEQRIDLNQLLIQHPSATYFVKASGDAMIDGGISDGDLLIVDSAITASHGDIVIAAVDGEFTVKKLQLRPTVQLIPMNSAYSPITISSEDTLDVFGVVIHVVKAMR | 3.6 ± 0.4 µM | 5.9 ± 0.9 µM | 12.2 ± 0.2 µM | 39% |
